Article PMC5758568, “Cryo EM structure of intact rotary H^+-ATPase/synthase from Thermus thermophilus” (Nature Communications, 2018)
Each block holds one molecule with its values, some of them ahead of it.

T1: d-subunit (subunit C) of the V/A-ATPase from Thermus thermophilus (Thermus thermophilus, UniProt P74902 1-323)
T1 construct: native subunit in the isolated whole enzyme; One copy in the enzyme; also called Vo-d
T1 sequence: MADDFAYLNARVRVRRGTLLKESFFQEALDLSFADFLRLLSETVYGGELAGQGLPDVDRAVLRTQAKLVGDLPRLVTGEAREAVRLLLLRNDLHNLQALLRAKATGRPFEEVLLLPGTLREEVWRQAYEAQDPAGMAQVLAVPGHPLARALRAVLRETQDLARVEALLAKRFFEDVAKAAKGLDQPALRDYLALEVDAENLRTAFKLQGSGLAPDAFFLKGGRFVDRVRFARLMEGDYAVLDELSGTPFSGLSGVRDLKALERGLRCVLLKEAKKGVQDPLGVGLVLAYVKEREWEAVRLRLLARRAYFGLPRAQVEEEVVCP

T2: B-subunit of the V/A-ATPase from Thermus thermophilus (Thermus thermophilus, UniProt Q56404 1-478)
T2 construct: V/A-type ATPase B-subunit (V1 part), Thermus thermophilus; native subunit in the isolated whole enzyme; Three copies in the enzyme (A3B3); also called subunit B
T2 sequence (looked up): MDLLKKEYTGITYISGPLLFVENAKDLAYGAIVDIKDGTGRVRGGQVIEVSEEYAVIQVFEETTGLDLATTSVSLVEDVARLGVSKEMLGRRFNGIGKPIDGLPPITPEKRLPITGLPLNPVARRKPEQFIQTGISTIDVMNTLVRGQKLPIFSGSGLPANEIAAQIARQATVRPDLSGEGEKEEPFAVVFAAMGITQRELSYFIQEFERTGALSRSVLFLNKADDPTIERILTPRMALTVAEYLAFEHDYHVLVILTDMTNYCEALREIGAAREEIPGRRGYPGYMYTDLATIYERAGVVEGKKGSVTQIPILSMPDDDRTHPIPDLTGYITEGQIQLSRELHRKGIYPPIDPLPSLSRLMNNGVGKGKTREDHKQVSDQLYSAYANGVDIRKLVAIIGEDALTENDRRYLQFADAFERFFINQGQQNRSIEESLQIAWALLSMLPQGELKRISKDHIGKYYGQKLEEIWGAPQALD

B1: D-subunit of the V/A-ATPase from Thermus thermophilus (natural protein, UniProt O87880 1-223, looked up)
chain: MSQVSPTRMNLLQRRGQLRLAQKGVDLLKKKRDALVAEFFGLVREAMEARKALDQAAKEAYAALLLAQAFDGPEVVAGAALGVPPLEGVEAEVENVWGSKVPRLKATFPDGALLSPVGTPAYTLEASRAFRRYAEALIRVANTETRLKKIGEEIKKTTRRVNALEQVVIPGIRAQIRFIQQVLEQREREDTFRLKRIKGKIEAREAEEEGGRPNPQVEIGAGL
notes: V/A-type ATPase D-subunit (central rotor shaft), Thermus thermophilus; native subunit in the isolated whole enzyme; One copy in the enzyme (D1F1d1c12 rotor); also called subunit D; V1-DF (with F)
B2: F-subunit of the V/A-ATPase from Thermus thermophilus (natural protein)
chain: MAVIADPETAQGFRLAGLEGYGASSAEEAQSLLETLVERGGYALVAVDEALLPDPERAVERLMRGRDLPVLLPIAGLKEAFQGHDVEGYMRELVRKTIGFDIKL
notes: V/A-type ATPase F-subunit (central rotor), Thermus thermophilus; native subunit in the isolated whole enzyme; One copy in the enzyme; also called subunit F; V1-DF (with D)
B3: E-subunit of the V/A-ATPase from Thermus thermophilus (natural protein)
chain: MSKLEAILSQEVEAEIQALLQEAEAKAEAVKREAEEKAKALLQARERALEAQYRAALRRAESAGELLVATARTQARGEVLEEVRRRVREALEALPQKPEWPEVVRKLALEALEALPGAKALVANPEDLPHLEALARERGVELQAEPALRLGVRAVGAEGKTQVENSLLARLDRAWDALSSKVAQALWG
notes: V/A-type ATPase E-subunit (peripheral stalk), Thermus thermophilus; native subunit in the isolated whole enzyme; Two copies in the enzyme (two EG stalks); also called subunit E; EG stalk (with G)

Key:
Experiment in all cases: cryo-EM structure; single particle cryo-EM of the whole V/A-ATPase in TE buffer (20 mM Tris-HCl pH 8.0, 0.1 mM EDTA) with 0.003% LMNG and 100 mM NaCl, no nucleotide added; three rotational states (5.0, 6.7, 7.5 Å), focused V1EGd map of state1 4.7 Å; crystal structures and homology models fitted by MDFF
[1] = target: c-subunit (subunit L) of the V/A-ATPase from Thermus thermophilus, with His3 tag on the C-terminus (Thermus thermophilus)
[2] = target: T1, d-subunit (subunit C) of the V/A-ATPase …; details: both partners purified
[3] = target: B1; details: both partners purified
[4] = target: T2, B-subunit of the V/A-ATPase from …; details: both partners purified

stoichiometry N [1]: 12
Molecule: c-subunit (subunit L) of the V/A-ATPase from Thermus thermophilus, with His3 tag on the C-terminus (natural protein)

Molecule: B1
binding result [2]: binds

Molecule: B2
binding result [3]: binds

Molecule: B3
binding result [4]: binds
